Our source for the EC50 (read off the curve) values is patent publication US20240327544A1.

For this test, the target named is human FcγRIa expressed on transiently transfected CHO-S cells (human) (UniProt P12314). In words: flow cytometry, CHO-S cells transiently expressing human FcγRIa, PE-conjugated goat anti-human IgG F(ab')2, % PE+ cells. In general terms: A flow cytometer gives signals particle by particle.
human FcγRIa expressed on transiently transfected CHO-S cells (human), sequence (P12314 16-374): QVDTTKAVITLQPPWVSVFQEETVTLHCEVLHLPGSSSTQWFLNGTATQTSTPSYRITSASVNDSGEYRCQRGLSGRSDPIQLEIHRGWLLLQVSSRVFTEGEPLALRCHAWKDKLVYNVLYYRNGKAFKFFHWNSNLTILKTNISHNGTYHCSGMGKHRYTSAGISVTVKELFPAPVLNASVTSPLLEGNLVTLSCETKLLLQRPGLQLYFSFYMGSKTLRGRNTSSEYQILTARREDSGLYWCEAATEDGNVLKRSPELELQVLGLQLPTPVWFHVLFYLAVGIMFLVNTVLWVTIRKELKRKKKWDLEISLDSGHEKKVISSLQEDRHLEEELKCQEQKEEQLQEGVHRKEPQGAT

Broadly, the EC50 (read off the curve) is the concentration needed to bring the measured effect to its halfway point. High values mean weaker potency, low ones greater potency. nivolumab (antibody) had an EC50 (read off the curve) of 0.2 µg/mL.
